Numbering of substitutions follows the chain as printed.
B1: P282DR9P1359_C5 (designed binder)
chain: LPAPKNLVVSRVTEDSARLSWTAPDAAFDSFWITYPEWPDPGGEAIVLTVPGSERSYDLTGLKPGTEYFVVIYGVKGGEIYSPLSAIFTT
notes: FN3 domain (Centyrin); purified as His-tagged protein, tag not in the entry
B2: P282DR9P1359_F7 (designed binder)
chain: LPAPKNLVVSRVTEDSARLSWTAPDAAFDSFAIAYPEWPPQGEAIVLTVPGSERSYDLTGLKPGTEYFVVIYGVKGGSYSAPLSAIFTT
notes: as for B1
B3: P282DR9P1359_G7 (designed binder)
chain: LPAPKNLVVSRVTEDSARLSWTAPDAAFDSFAITYIEKEHIEDGEAIVLTVPGSERSYDLTGLKPGTEYWVPIWGVKGGANSWPLSAIFTT
notes: as for B1
B4: CD8S383 (designed binder)
chain: B3 chain with W74Y
notes: W74Y mutant of P282DR9P1359_G7; the entry holds the mutation
B5: CD8S387 (designed binder)
chain: B3 chain with W83E
notes: W83E mutant of P282DR9P1359_G7; the entry holds the mutation
B6: CD8S388 (designed binder)
chain: B3 chain with N81Q
notes: N81Q mutant of P282DR9P1359_G7; the entry holds the mutation
B7: P282ER9P1360_C8 (designed binder)
chain: LPAPKNLVVSRVTEDSARLSWTAPDAAFDSFGILYYEPVDSGEAITLPVPGSERSYDLTGLKPGTEYWVVITGVKGGAPSTPLGTIFTT
notes: as for B1
B8: CD8S389 (designed binder)
chain: B7 chain with W68F
notes: W68F mutant of P282ER9P1360_C8; the entry holds the mutation
B9: CD8S390 (designed binder)
chain: B7 chain with W68Y
notes: W68Y mutant of P282ER9P1360_C8; the entry holds the mutation
B10: CD8S391 (designed binder)
chain: B7 chain with W68H
notes: W68H mutant of P282ER9P1360_C8; the entry holds the mutation
B11: CD8S405 (designed binder)
chain: B7 chain with P48T
notes: P48T mutant of P282ER9P1360_C8; the entry holds the mutation
B12: CD8S366-DFO (designed binder)
chain: B1 chain with E54C
modifications: deferoxamine (DFO) conjugated to the free cysteine introduced by E54C
notes: DFO conjugate of CD8S366
B13: CD8S367-DFO (designed binder)
chain: B2 chain with E53C
modifications: deferoxamine (DFO) conjugated to the free cysteine introduced by E54C
notes: DFO conjugate of CD8S367
B14: CD8S368-DFO (designed binder)
chain: B2 chain with A32Q, Q41P, E53C, V70I, Y72Q, S78V, Y79E, A81W
modifications: deferoxamine (DFO) conjugated to the free cysteine introduced by E54C
notes: DFO conjugate of CD8S368
B15: CD8S370-DFO (designed binder)
chain: B3 chain with E55C
modifications: deferoxamine (DFO) conjugated to the free cysteine introduced by E54C
notes: DFO conjugate of CD8S370
B16: CD8S365-DFO (designed binder)
chain: B7 chain with E53C
modifications: deferoxamine (DFO) conjugated to the free cysteine introduced by E54C
notes: DFO conjugate of CD8S365
B17: CD8S369-DFO (designed binder)
chain: LPAPKNLVVSRVTEDSARLSWAKRPGAFDSFLIQYQESEKVGEAIVLTVPGSCRSYDLTGLKPGTEYTVSIYGVDVKYDIDSRPISSNPLSAIFTT
modifications: deferoxamine (DFO) conjugated to the free cysteine introduced by E54C
notes: DFO conjugate of CD8S369
B18: P283AR9P1362_D6 (designed binder)
chain: B17 chain with C53E
notes: as for B1

Each binder was assayed against T1, human CD8A-Fc (recombinant human CD8 alpha fused to Fc fragment of human IgG1) (human, UniProt P01732 22-182, limits assumed) (assay: SPR, dissociation rate on recombinant CD8 alpha).
T1 construct: SPR ligand, captured by goat anti-human Fc; also called hCD8A-Fc; recombinant CD8 alpha; not shown: linker with flag (and polyhistidine) tag and Fc fragment of human IgG1; depends on which of the two constructs was used
T1 sequence (P01732 22-182 limits assumed): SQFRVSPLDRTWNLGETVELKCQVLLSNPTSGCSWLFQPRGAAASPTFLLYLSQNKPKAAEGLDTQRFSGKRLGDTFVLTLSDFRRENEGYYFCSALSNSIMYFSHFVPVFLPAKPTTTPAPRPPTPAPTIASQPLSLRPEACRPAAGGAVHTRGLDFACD

Question: For B1, which koff is on record?
Answer: Its koff is 0.000147 s⁻¹.

Question: B2 was tested. Which koff did it give?
Answer: The koff was 0.000339 s⁻¹.

Question: Which koff does the source give for B3 here?
Answer: The koff was 1.06e-05 s⁻¹.

Question: For B4, which koff is on record?
Answer: The koff was 0.000747 s⁻¹.

Question: With B5 as the binder, how does the koff read?
Answer: The koff was 0.000125 s⁻¹.

Question: For B6, which koff is on record?
Answer: Its koff is 7.54e-05 s⁻¹.

Question: B7 was tested. Which koff did it give?
Answer: Its koff is 0.000179 s⁻¹.

Question: B8 was tested. Which koff did it give?
Answer: The koff was 0.000184 s⁻¹.

Question: B9 was tested. Which koff did it give?
Answer: Its koff is 0.000152 s⁻¹.

Question: For B10, which koff is on record?
Answer: The koff was 0.00032 s⁻¹.

Question: B11 was tested. Which koff did it give?
Answer: Its koff is 0.00114 s⁻¹.

What follows are binders tested against T1, human CD8A-Fc (recombinant human CD8 …) (assay: SPR on recombinant human CD8 alpha after DFO conjugation, lower affinity population).
Protocol: (§1) Data analyses were performed using Bio-Rad ProteOn Manager software (version 3.1.0.6). Raw data were double referenced by subtraction of the interspot (empty chip surface, no protein immobilized or captured) signals to correct the non-specific binding of the FN3 domain to the pre-coated GAH-Fc IgG surface, followed by a double referencing using the buffer blank response (to correct for any baseline drift resulting from ligand dissociation over time). […] Given that the GAH-Fc capture of hCD8A-Fc format is the least disruptive relative to other formats in introducing potential experimental artifacts (such as ligand activity loss and/or artificial eptiopes/heterogeneous ligand population due to amine coupling), it is considered that the results from the GAH-Fc capture experiments reported here represent the most reliable ProteOn SPR data, despite the non-conforming 1:1 Langmuir fits observed in many instances. A heterogeneous ligand model was chosen to fit the data assuming two different ligand species, either due to the heterogeneity in the ligand protein population or due to potential different mechanisms for each FN3 domain binding to the 2 hCD8A monomers in the Fc fusion protein. In this case, because each anti-CD8A FN3 domain would have separate affinities, the resultant sensorgram reflects the sum of two independent reactions with two sets of rate constants, which were reported for each FN3 domain binding.
(§2) Following conjugation to DFO, the binding of each anti-CD8A FN3 domain to recombinant human CD8 alpha was assessed by surface plasmon resonance as previously described. All samples retained tight binding to human CD8A following mutation of E54 to Cys and conjugation to DFO (Table 8).

Question: Which Kd does the source give for B12 here?
Answer: The Kd was 18.2 nM.

Question: And the koff?
Answer: The koff was 0.000106 s⁻¹.

Question: What about the kon of the same binder?
Answer: Its kon is 5850 M⁻¹ s⁻¹.

Question: B13 was tested. Which Kd did it give?
Answer: Its Kd is 89.1 nM.

Question: And the koff?
Answer: The koff was 0.000975 s⁻¹.

Question: What about the kon of the same binder?
Answer: Its kon is 10900 M⁻¹ s⁻¹.

Question: With B14 as the binder, how does the Kd read?
Answer: The Kd was 13.6 nM.

Question: What about the koff of the same binder?
Answer: Its koff is 9.98e-05 s⁻¹.

Question: What about the kon of the same binder?
Answer: Its kon is 7320 M⁻¹ s⁻¹.

Question: B15 was tested. Which Kd did it give?
Answer: Its Kd is 13 nM.

Question: What about the koff of the same binder?
Answer: The koff was 7.65e-05 s⁻¹.

Question: What about the kon of the same binder?
Answer: Its kon is 5910 M⁻¹ s⁻¹.

Question: With B16 as the binder, how does the Kd read?
Answer: Its Kd is 9.73 nM.

Question: And the koff?
Answer: The koff was 4.29e-05 s⁻¹.

Question: What about the kon of the same binder?
Answer: Its kon is 4410 M⁻¹ s⁻¹.

Question: For B17, which Kd is on record?
Answer: The Kd was at most 3.4 nM.

Question: What about the koff of the same binder?
Answer: The koff was at most 1e-05 s⁻¹.

Question: What about the kon of the same binder?
Answer: The kon was 2870 M⁻¹ s⁻¹.

What follows are binders tested against T1, human CD8A-Fc (recombinant human CD8 …) (assay: SPR on recombinant human CD8 alpha after DFO conjugation, higher affinity population).
Protocol: as §1, §2

Question: Which results are given for B12?
Answer: Kd: 0.9 nM; koff: 7.01e-05 s⁻¹; kon: 79500 M⁻¹ s⁻¹

Question: Which results are given for B13?
Answer: Kd: 1.55 nM; koff: 0.000131 s⁻¹; kon: 84500 M⁻¹ s⁻¹

Question: B14 was tested. Which Kd did it give?
Answer: The Kd was 0.23 nM.

Question: What about the koff of the same binder?
Answer: Its koff is 2.53e-05 s⁻¹.

Question: What about the kon of the same binder?
Answer: Its kon is 108000 M⁻¹ s⁻¹.

Question: What does the source list for B15?
Answer: Kd: ≤ 0.3 nM; koff: ≤ 2e-05 s⁻¹; kon: 46400 M⁻¹ s⁻¹

Question: What does the source list for B16?
Answer: Kd: 0.6 nM; koff: 4.18e-05 s⁻¹; kon: 68000 M⁻¹ s⁻¹

Question: What does the source list for B17?
Answer: Kd: ≤ 0.3 nM; koff: ≤ 1e-05 s⁻¹; kon: 37300 M⁻¹ s⁻¹

Each binder was assayed against T1, human CD8A-Fc (recombinant human CD8 …) (assay: SPR (ProteOn), captured hCD8A-Fc, heterogeneous ligand fit, lower affinity population).
Protocol: as §1, with “Human CD8A-Fc was then captured at five surface densities ranging from 200 to 1200 response units, leaving the 6th channel as empty channel control for GAH-Fc IgG surface. Binding was measured by flowing five different concentrations of anti-CD8A FN3 domains (1 μM diluted in a 3-fold dilution series) as analytes simultaneously in the horizontal orientation over the captured hCD8A-Fc surfaces, with a sixth analyte channel containing only running buffer PBST. All interactions were measured at 100 uL/min flow rate with association and dissociation times being 4, 30 minutes respectively. […] Data” for “Data”, “protein.” for “protein. In this case, because each anti-CD8A FN3 domain would have separate affinities, the resultant sensorgram reflects the sum of two independent reactions with two sets of rate constants, which were reported for each FN3 domain binding.”

Question: For B1, which Kd is on record?
Answer: Its Kd is 6.5 nM.

Question: And the koff?
Answer: Its koff is 0.000127 s⁻¹.

Question: What about the kon of the same binder?
Answer: Its kon is 19200 M⁻¹ s⁻¹.

Question: How did the Kd turn out when B2 was run?
Answer: Its Kd is 12 nM.

Question: And the koff?
Answer: The koff was 0.000365 s⁻¹.

Question: What about the kon of the same binder?
Answer: Its kon is 40300 M⁻¹ s⁻¹.

Question: B3 was tested. Which Kd did it give?
Answer: The Kd was 2.1 nM.

Question: What about the koff of the same binder?
Answer: The koff was 5.51e-05 s⁻¹.

Question: What about the kon of the same binder?
Answer: The kon was 68400 M⁻¹ s⁻¹.

Question: B7 was tested. Which Kd did it give?
Answer: Its Kd is 4.1 nM.

Question: What about the koff of the same binder?
Answer: The koff was 9.52e-05 s⁻¹.

Question: What about the kon of the same binder?
Answer: The kon was 30900 M⁻¹ s⁻¹.

Question: For B18, which Kd is on record?
Answer: The Kd was 0.98 nM.

Question: And the koff?
Answer: The koff was 3.12e-05 s⁻¹.

Question: And the kon?
Answer: Its kon is 56200 M⁻¹ s⁻¹.

These binders were tested against T1, human CD8A-Fc (recombinant human CD8 …) (assay: SPR (ProteOn), captured hCD8A-Fc, heterogeneous ligand fit, higher affinity population).
Protocol: as §1, with “Human CD8A-Fc was then captured at five surface densities ranging from 200 to 1200 response units, leaving the 6th channel as empty channel control for GAH-Fc IgG surface. Binding was measured by flowing five different concentrations of anti-CD8A FN3 domains (1 μM diluted in a 3-fold dilution series) as analytes simultaneously in the horizontal orientation over the captured hCD8A-Fc surfaces, with a sixth analyte channel containing only running buffer PBST. All interactions were measured at 100 uL/min flow rate with association and dissociation times being 4, 30 minutes respectively. […] Data” for “Data”, “protein.” for “protein. In this case, because each anti-CD8A FN3 domain would have separate affinities, the resultant sensorgram reflects the sum of two independent reactions with two sets of rate constants, which were reported for each FN3 domain binding.”

Question: Which Kd does the source give for B1 here?
Answer: The Kd was 0.02 nM.

Question: And the koff?
Answer: Its koff is 5.79e-06 s⁻¹.

Question: What about the kon of the same binder?
Answer: Its kon is 300000 M⁻¹ s⁻¹.

Question: For B2, which Kd is on record?
Answer: The Kd was 0.5 nM.

Question: And the koff?
Answer: The koff was 7.99e-05 s⁻¹.

Question: What about the kon of the same binder?
Answer: The kon was 404000 M⁻¹ s⁻¹.

Question: B3 was tested. Which Kd did it give?
Answer: Its Kd is 0.05 nM.

Question: What about the koff of the same binder?
Answer: The koff was 1.49e-05 s⁻¹.

Question: And the kon?
Answer: Its kon is 276000 M⁻¹ s⁻¹.

Question: How did the Kd turn out when B7 was run?
Answer: The Kd was 0.2 nM.

Question: And the koff?
Answer: The koff was 4.71e-05 s⁻¹.

Question: What about the kon of the same binder?
Answer: The kon was 218000 M⁻¹ s⁻¹.

Question: For B18, which Kd is on record?
Answer: Its Kd is 0.03 nM.

Question: And the koff?
Answer: Its koff is 1e-06 s⁻¹.

Question: What about the kon of the same binder?
Answer: The kon was 155000 M⁻¹ s⁻¹.
